Assay results published in patent US20220195037A1 (AstraZeneca / MedImmune, published 2022).

Target: T1, Lectin-like oxidized low density lipoprotein receptor-1 (LOX1), expressed on cells (UniProt P78380 1-273, limits assumed)
T1 construct: whole, on cells; Also used as the target for the functional rows, where it is endogenous LOX1 on patient-derived pancreatic tumor cells, cancer cell lines and cardiomyocytes; also called LOX1-expressing cells; cells overexpressing LOX1
Assay: Western blot of lysates of human aortic endothelial cells, membrane probed with LX5140110 at 1 µg/ml and anti-human-Fc-HRP
From the text: Inhibition of LOX1 can reduce chemotherapy-induced cardiomyocyte damage. While the combination of chemotherapy and anti-CSC targeted therapies will likely be useful in the clinic, it is known that many chemotherapies have unintended harmful side effects in addition to anti-tumor activity. One such side effect is cardiac damage that can lead to cardiomyocyte death and heart failure. […] First, we examined the expression of LOX1 in response to doxorobucin treatment in human aortic endothelial cells (HAEC) and embryonic stem cell derived cardiomyocytes. Oxidized LDL (Ox-LDL) is a conventional ligand of LOX1 and was added as a control, since previous reports show an increase of LOX1 in response to Ox-LDL in rat cardiac muscle cells (Spallarossa et al., (2005)). Forty-thousand cells were plated in a 96-well plate and treated with media alone or media containing 5 μM doxorubicin for 24 hours. The cells were then scraped and lysed with 1× RIPA buffer containing protease inhibitors on ice for 1 h. Loading buffer was added to each sample followed by heating for 10 min at 90° C. Twelve microliters of sample was loaded per lane in a 4-12% bis-tris gradient gel. The gels were run for 40 min at 200V in MOPS buffer. The proteins were transferred onto a nitrocellulose membrane using iBlot. The membrane was blocked overnight with casein solution. […]

B1: LX5140110 (antibody, V domains shown)
VH: QVQLVQSGAEVKKPGASVKVSCKVSGYTLTELSMHWVRQAPGKGLEWMGGFDPEDFKYHTHQKFQGRVTMTEDTSTDTAYMELSSLRSEDTAVYYCALVWGTQGKGVRGWDYYYGMDVWGQGTTVTVSS
VL: QSVVTQPPSVSGAPGQRVTISCTGSSSNIGAGYDVHWYQQLPGTAPKLLIYGNSNRPSGVPDRFSGSKSGTSASLAITGLQAEDEADYYCQSYDSSLSGWVFGGGTKLTVL
notes: Monoclonal antibody; It was detected with an anti-human-Fc antibody, and the controls were non-specific IgG1; also called LOX1-specific monoclonal antibody; LOX1 monoclonal antibody
- binding result: binds
